Measurements as given in patent US20250236667A1, “ANTIBODIES TO MUTANT CALRETICULIN AND USES THEREOF” (CENTRAL ADELAIDE LOCAL HEALTH NETWORK INC, priority 2021, published 2025).

Legend:
[1] = test system: TF-1 TpoR CALR^del61 cells; experiment: Flow cytometry of 4D7 binding to the cell surface, mutant CALR cells; assay type: cell-based, human; conditions: PE-conjugated 4D7; vs unstained or isotype-PE control
Experimental: TF-1 cells expressing TpoR and mutant CALR were incubated for 30 minutes 4D7 conjugated to phycoerthryin (PE) (Abcam, #AB102918) or IgG2a PE isotype control (ThermoFisher #12-4321-42) at the concentrations specified after pre-incubation with mouse serum. Cells were washed 1 × before analysis on a CytoFLEX (Beckman Coulter).

[2] = test system: ruxolitinib-resistant TF-1 TpoR CALR^del61 cells in NSG mice; experiment: Bone marrow engraftment xenograft model, ruxolitinib-resistant cells; assay type: in vivo; conditions: cells resistant to 100 nM ruxolitinib; 12.5 mg/kg twice weekly from day 7; P=0.0008
Experimental: All procedures were approved by the South Australian Health and Medical Research Animal Ethics Committee (Protocol SAM21-018). Bone marrow engraftment model: 4-6 week old NSG mice were x-ray irradiated with 150 cGy and 5×10^5 cells (TF-1-TpoR CALR^del61) or 5×10^4 cells (100 nM ruxolitinib resistant TF-1 TpoR CALR^del61) were intravenously injected into mice. Seven days after injection, mice were administered 12.5 mg/kg IgG or 4D7 by intraperitoneal injection twice weekly. Tail vein bleeds were taken at 3 weeks and analysed via flow cytometry to determine human leukaemia content in the peripheral blood. Leukemic cells were PI-, mCD45.1, hCD33+, zsGreen+. Mice were monitored daily and euthanized once clinical symptoms were observed. At the time of euthanasia, cardiac puncture was performed to obtain both peripheral blood and serum for analysis. Additionally, bone marrow from both femurs, spine and spleens were analysed for leukemic content as detailed above. Chloroma model: 4-6 week old NSG mice were anaesthetised by isoflurane inhalation and shaved on the left back/flank and 1×10^7 cells were injected into the mice. Cells were pre-treated with 20 μg/mL IgG or 4D7 for 1 hour prior to injection. Seven days after injection, mice were administered 12.5 mg/kg IgG or 4D7 by intraperitoneal injection twice weekly. Tumour progression was assessed through caliper measurements every 2 days. […]

[3] = test system: TpoR in TF-1 TpoR CALR^del61; experiment: TpoR tyrosine phosphorylation, immunoprecipitation and Western blot; assay type: cell-based, human; conditions: 8 hours of 20 μg/mL
Experimental: A. Cell extracts blotted for phospho-STAT1, total STAT1, phospho-STAT3, total STAT3 and actin from TF-1 TpoR cells after incubation with 10 or 20 μg/mL 4D7 or IgG for 4 or 8 hours as indicated. B. Similar experiment using TPO-independent TF-1 TpoR CALR^del61 cells at 4 and 8 hours. C. Similar experiment shown using TPO-independent TF-1 TpoR CALR^del52 cells, 8 hours. D. Flow cytometry analysis for cell cycle distribution of TF-1 TpoR CALR^del61 cells exposed to 20 μg/mL IgG or 4D7 for 48 hours. Cells were harvested and fixed and stained with propidium iodide and their DNA contents were analysed. Results from one representative experiment shown. Percentages of cells in Sub Go, G1. S and G2/M cycle indicated. E. Western blot showing specific co-immunoprecipitation of mutant CALR^del61 cells with TpoR anti-FLAG antibody under reducing conditions detected by total and mutant specific CALR antibodies. Arrowheads represent detected CALR protein. F. Western blot showing decreased TpoR phosphorylation in a TpoR immunoprecipitated after 8 hours of 20 μg/mL 4D7 treatment compared to PBS or IgG control in TF-1 TpoR CALR^del61. […]

[4] = Pharmacokinetic measurement of serum level of 4D7; assay type: in vivo, mice; conditions: 12.5 mg/kg intraperitoneal injection; 48 hours post injection
Experimental: A. Illustration showing bone marrow NSG engraftment model with TPO-independent TF-1 TpoR CALR^del61 cells treated with 4D7 or IgG control twice weekly, starting 7 days after engraftment via intraperitoneal injection and final measurements taken from euthanized mice. B. Pharmacokinetic measurements of serum level of 4D7 in mice after intraperitoneal injection at 1, 24, 48, 72 and 110 hours since administration. C. Percentage of human CD33+myeloid cells measured in peripheral blood at 3 weeks post-tail vein engraftment (n=5 mice per treatment). D. Kaplan-Meier survival curve of bone marrow engraftment model showing improved survival of mice treated with 4D7 compared with IgG control commencing I week after tail vein injection (n=5 mice per treatment). […]
All procedures were approved by the South Australian Health and Medical Research Animal Ethics Committee (Protocol SAM21-018). […] Tail vein bleeds were taken at 3 weeks and analysed via flow cytometry to determine human leukaemia content in the peripheral blood. […] Mice were monitored daily and euthanized once clinical symptoms were observed. […] Additionally, bone marrow from both femurs, spine and spleens were analysed for leukemic content as detailed above. […] Tumour progression was assessed through caliper measurements every 2 days. […]

B1: 4D7: rat monoclonal IgG2a antibody against the mutant CALR neoepitope; VH SEQ ID NO: 5, VL SEQ ID NO: 7 (antibody, listed as Rattus rattus, V domains shown)
VH: QVQLQQSGAELAKPGSSVKISCKASGYTFTNYDMSWIKQRPGQALEWIGAINPGNGVTDYNEKFRGKATLTVDKSSSTAFMQLSSLTPEDTAVYHCAREYRDNYGYFDYWGQGVMVTVSS
VL: DIVLTQTPVSLSVTLGDQASISCRSSQSLEYSDGYTYLDWFLQKPGQSPQLLIYEVSSRFSGVPDRFIGRGSGTDFTLKISRVEPEDLGVYYCFQATHDPFTFGSGTKLEIK
In the case of B1, the “binding to the cell surface” value [1] is reported as “Specific binding”, the “survival, hazard ratio” value [2] is reported as 0.26 and the TpoR tyrosine phosphorylation [3] is reported as “inhibition”. The serum concentration [4] was “more than 100 μg/mL”.
